Patent US20200317768A1 (published 2020)
Where a chain is given by its changes, count along the chain named.

Assays:
[1] = molecular target: T1, cynomolgus monkey FcγRIIa1 extracellular domain, C-terminal His-tag (cynomolgus monkey); assay: SPR; FcgR bound per captured antibody, normalized to SG1
T1 construct: also called cyno FcγRIIa1; FcgRIIa1
T1 chain: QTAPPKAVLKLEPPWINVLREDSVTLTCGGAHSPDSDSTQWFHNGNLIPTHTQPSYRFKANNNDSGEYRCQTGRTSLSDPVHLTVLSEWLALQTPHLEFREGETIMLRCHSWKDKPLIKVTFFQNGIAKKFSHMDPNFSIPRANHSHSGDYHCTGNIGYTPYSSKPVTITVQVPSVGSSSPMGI
Description: (§1) The kinetic analysis of interactions between these antibodies and FcγR was carried out using BIACORE® T200 or BIACORE® 4000 (GE Healthcare). HBS-EP+ (GE Healthcare) was used as the running buffer, and the measurement temperature was set to 25° C. A chip produced by immobilizing Protein A. Protein A/G or mouse anti-human IgG kappa light chain (BD Biosciences) onto a Series S Sensor Chip CM4 or CM5 (GE Healthcare) by the amine-coupling method was used. […] After the measurement, the antibody captured on the chip was washed off by allowing reaction with 10 mM glycine-HCl, pH1.5 and 25 mM NaOH so that the chip was regenerated and used repeatedly. The sensorgrams obtained as measurement results were analyzed by the 1:1 Langmuir binding model using the BIACORE® Evaluation Software to calculate the binding rate constant ka (L/mol/s) and dissociation rate constant kd (l/s), and the dissociation constant KD (mol/L) was calculated from these values. […] Regarding such interactions, KD values were calculated using the following 1:1 binding model described in BIACORE® T100 Software Handbook BR1006-48 Edition AE.
(§2) The value of the amount of FcγR binding was obtained by dividing the amount of FcγR bound by the amount of each antibody captured.

[2] = molecular target: T2, cynomolgus monkey FcγRIIa2 extracellular domain, C-terminal His-tag (cynomolgus monkey); assay: as above
T2 construct: also called cyno FcγRIIa2; FcgRIIa2
T2 chain: T1 chain with P95T, T121A, I127K, A128S, K130N, D135N, R142Q
Description: as §1, §2

[3] = molecular target: T3, cynomolgus monkey FcγRIIa3 extracellular domain, C-terminal His-tag (cynomolgus monkey); assay: as above
T3 construct: also called cyno FcγRIIa3; FcgRIIa3
T3 chain: T1 chain with P95T, T121A, A128S, H133P, D135N
Description: as §1, §2

[4] = molecular target: T4, cynomolgus monkey FcγRIIb extracellular domain, C-terminal His-tag (cynomolgus monkey); assay: as above
T4 construct: also called cyno FcγRIIb; cynoFcγRIIb
T4 chain: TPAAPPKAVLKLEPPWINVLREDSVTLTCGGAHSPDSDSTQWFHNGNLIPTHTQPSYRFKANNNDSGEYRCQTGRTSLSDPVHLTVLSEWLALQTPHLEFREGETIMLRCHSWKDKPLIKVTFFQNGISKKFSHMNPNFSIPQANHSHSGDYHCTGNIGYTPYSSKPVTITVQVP
Description: as §1, §2

[5] = molecular target: T5, cynomolgus monkey FcγRIIIaS extracellular domain, C-terminal His-tag (cynomolgus monkey, UniProt Q8SPW2 21-206 at identity 1.00)); assay: as above
T5 construct: also called cyno FcγRIIIaS; FcgRIIIaS
T5 chain: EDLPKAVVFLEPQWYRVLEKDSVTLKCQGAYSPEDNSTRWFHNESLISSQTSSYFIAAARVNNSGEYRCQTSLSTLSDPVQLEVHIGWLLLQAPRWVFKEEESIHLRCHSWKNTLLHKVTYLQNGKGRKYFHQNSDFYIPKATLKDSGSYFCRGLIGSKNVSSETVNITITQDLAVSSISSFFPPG
Description: as §1, §2

Human latent myostatin = molecular target: T6, Human latent myostatin (human, UniProt O14793 25-266; O14793 267-375); assay: SPR (BIACORE T200) 37C, pH 7.4, antibody captured by ProA/G
T6 construct: also called human myostatin latent form
T6 sequence 1: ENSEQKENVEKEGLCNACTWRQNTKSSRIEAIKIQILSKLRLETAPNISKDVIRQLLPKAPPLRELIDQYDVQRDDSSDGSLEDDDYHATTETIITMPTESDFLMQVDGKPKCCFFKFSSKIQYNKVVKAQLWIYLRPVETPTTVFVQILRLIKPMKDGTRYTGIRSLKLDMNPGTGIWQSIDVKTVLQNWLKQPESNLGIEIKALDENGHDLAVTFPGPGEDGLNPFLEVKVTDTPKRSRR
T6 sequence 2: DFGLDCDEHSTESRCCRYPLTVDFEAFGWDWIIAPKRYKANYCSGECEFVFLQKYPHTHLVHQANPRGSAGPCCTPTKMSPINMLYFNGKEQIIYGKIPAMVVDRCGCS

Mouse latent myostatin = molecular target: T7, Mouse latent myostatin (mouse, UniProt O08689 26-267; O08689 268-376); assay: as above
T7 construct: Latent form = complex of two propeptides and the mature dimer
T7 sequence 1: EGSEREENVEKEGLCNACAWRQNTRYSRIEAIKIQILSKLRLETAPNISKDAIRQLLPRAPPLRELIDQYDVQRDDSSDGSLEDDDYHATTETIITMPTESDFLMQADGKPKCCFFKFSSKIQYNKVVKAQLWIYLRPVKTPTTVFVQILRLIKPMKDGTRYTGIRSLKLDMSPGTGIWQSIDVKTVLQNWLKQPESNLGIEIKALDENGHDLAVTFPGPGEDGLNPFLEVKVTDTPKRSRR
T7 sequence 2: T6 sequence 2

B1: MS_M103205H795-SG1/M103202L889-SK1 (antibody, human IgG1, kappa)
heavy: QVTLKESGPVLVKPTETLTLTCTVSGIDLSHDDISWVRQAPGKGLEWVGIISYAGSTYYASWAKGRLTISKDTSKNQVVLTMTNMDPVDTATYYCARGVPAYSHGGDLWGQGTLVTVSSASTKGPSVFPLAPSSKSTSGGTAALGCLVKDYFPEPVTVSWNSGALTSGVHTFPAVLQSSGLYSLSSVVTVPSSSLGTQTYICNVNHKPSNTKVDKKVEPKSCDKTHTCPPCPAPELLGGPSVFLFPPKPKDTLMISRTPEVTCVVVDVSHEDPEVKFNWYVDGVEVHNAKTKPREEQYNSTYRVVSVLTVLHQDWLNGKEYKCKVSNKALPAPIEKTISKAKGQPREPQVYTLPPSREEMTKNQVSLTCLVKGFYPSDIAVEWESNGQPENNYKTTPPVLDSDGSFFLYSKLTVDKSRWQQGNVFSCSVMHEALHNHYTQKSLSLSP
light: DIVMTQSPATLSLSPGERATLSCTSSQSVYHANWLSWFQQKPGQPPKLLIYWASTLAYGVPSRFSGSGSGTDFTLTISSLQPEDAATYYCAGGYGGGRYAFGQGTKVEIKRTVAAPSVFIFPPSDEQLKSGTASVVCLLNNFYPREAKVQWKVDNALQSGNSQESVTEQDSKDSTYSLSSTLTLSKADYEKHKVYACEVTHQGLSSPVTKSFNRGEC
notes: also called MS1032LO06-SG1
- amount of FcgR binding (SG1 = 100) [1]: 100 SG1 = 100
- amount of FcgR binding (SG1 = 100) [2]: 100 SG1 = 100
- amount of FcgR binding (SG1 = 100) [3]: 100 SG1 = 100
- amount of FcgR binding (SG1 = 100) [4]: 100 SG1 = 100
- amount of FcgR binding (SG1 = 100) [5]: 100 SG1 = 100
- Kd (Human latent myostatin): 0.285 nM
- Kd (Mouse latent myostatin): 0.299 nM
